Assays:
AncSZ = assay: phosphorylation enrichment, bacterial display (enrichment ratio); higher = better substrate or ligand; peptides without Tyr show the background
EPHB1 = EPHB1 (UniProt P54762); assay: as above
EPHB2 = EPHB2 (UniProt P29323); assay: as above
FGFR1 = FGFR1 (UniProt P11362); assay: as above
FGFR3 = FGFR3 (UniProt P22607); assay: as above
Fer (mouse) = assay: as above
Fes = Fes (UniProt P07332); assay: as above
Fyn = Fyn (UniProt P06241); assay: as above
Hck = Hck (UniProt P08631); assay: as above
Jak2 = Jak2 (UniProt O60674); assay: as above
MERTK = MERTK (UniProt Q12866); assay: as above
c-Abl (mouse) = assay: as above
c-Src = assay: as above
Grb2 SH2 = Grb2 SH2 (UniProt P62993); assay: SH2 binding enrichment of the phosphorylated peptide, bacterial display (enrichment ratio); higher = better substrate or ligand; peptides without Tyr show the background
SHP2-C SH2 = assay: as above
c-Src SH2 = assay: as above
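For SH2 binding enrichment of the phosphorylated peptide, bacterial display in this document: peptide library displayed on the E. coli surface as eCPX fusions, selected cells deep-sequenced, score is each peptide's frequency after selection divided by its frequency in the input.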
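For phosphorylation enrichment, bacterial display in this document: 11-residue human phosphosite peptides and single-mutation variants displayed on the E. coli surface, counted by deep sequencing, each peptide's frequency after selection divided by its frequency in the unselected input library; frequency after pTyr selection over input frequency; kinase dosed for 20-30% of maximal phosphorylation in three min.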

Chain of Grb2 SH2 (P62993 whole entry, looked up): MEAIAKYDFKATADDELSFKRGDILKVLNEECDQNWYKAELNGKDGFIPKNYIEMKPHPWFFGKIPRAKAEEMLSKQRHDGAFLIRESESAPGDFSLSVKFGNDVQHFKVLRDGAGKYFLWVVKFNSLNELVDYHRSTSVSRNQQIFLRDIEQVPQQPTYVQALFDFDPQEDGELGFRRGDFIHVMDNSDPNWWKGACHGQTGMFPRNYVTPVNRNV
Chain of Fes (P07332 whole entry, looked up): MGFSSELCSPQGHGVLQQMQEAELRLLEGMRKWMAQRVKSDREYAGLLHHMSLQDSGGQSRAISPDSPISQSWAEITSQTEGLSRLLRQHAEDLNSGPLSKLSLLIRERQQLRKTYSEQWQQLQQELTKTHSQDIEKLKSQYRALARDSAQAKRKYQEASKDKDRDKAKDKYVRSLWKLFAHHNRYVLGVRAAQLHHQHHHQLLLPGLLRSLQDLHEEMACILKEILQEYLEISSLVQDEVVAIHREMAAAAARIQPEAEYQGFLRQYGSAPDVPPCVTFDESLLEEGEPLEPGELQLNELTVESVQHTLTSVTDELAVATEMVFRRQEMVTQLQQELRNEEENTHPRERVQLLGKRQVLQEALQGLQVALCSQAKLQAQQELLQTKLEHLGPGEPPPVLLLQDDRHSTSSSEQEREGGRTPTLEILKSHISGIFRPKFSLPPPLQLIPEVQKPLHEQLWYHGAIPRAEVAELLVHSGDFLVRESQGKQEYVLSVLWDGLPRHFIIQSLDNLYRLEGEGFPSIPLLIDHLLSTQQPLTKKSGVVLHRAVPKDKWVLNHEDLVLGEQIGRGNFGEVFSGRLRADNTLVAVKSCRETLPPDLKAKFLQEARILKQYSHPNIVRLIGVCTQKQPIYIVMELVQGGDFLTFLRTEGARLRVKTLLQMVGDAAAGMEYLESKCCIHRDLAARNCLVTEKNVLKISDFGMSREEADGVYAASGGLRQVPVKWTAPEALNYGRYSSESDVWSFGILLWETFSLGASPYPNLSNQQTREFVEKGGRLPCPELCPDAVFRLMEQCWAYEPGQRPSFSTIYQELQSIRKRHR
Chain of FGFR1 (P11362 whole entry, looked up): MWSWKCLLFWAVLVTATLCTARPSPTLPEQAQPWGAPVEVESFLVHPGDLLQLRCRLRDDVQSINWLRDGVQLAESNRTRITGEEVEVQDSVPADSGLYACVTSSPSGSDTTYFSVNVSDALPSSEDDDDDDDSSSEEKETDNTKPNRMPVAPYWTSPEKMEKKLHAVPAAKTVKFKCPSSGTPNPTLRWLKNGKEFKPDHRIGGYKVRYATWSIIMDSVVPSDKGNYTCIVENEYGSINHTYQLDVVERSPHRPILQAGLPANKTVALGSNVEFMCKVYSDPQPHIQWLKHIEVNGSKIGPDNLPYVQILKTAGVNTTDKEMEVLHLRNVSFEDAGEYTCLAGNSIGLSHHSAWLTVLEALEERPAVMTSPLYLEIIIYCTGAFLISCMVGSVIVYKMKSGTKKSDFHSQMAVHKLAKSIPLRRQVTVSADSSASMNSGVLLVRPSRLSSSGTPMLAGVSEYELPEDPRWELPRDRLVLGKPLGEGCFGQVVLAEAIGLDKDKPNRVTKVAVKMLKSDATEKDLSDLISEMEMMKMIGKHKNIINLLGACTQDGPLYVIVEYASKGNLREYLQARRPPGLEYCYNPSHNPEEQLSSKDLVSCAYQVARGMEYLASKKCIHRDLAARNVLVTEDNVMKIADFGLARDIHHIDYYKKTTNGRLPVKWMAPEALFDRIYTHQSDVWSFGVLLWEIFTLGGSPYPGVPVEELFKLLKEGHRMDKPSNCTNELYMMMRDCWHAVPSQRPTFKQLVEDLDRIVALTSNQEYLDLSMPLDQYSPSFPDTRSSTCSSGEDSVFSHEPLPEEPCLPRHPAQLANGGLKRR
Chain of Jak2 (O60674 whole entry, looked up): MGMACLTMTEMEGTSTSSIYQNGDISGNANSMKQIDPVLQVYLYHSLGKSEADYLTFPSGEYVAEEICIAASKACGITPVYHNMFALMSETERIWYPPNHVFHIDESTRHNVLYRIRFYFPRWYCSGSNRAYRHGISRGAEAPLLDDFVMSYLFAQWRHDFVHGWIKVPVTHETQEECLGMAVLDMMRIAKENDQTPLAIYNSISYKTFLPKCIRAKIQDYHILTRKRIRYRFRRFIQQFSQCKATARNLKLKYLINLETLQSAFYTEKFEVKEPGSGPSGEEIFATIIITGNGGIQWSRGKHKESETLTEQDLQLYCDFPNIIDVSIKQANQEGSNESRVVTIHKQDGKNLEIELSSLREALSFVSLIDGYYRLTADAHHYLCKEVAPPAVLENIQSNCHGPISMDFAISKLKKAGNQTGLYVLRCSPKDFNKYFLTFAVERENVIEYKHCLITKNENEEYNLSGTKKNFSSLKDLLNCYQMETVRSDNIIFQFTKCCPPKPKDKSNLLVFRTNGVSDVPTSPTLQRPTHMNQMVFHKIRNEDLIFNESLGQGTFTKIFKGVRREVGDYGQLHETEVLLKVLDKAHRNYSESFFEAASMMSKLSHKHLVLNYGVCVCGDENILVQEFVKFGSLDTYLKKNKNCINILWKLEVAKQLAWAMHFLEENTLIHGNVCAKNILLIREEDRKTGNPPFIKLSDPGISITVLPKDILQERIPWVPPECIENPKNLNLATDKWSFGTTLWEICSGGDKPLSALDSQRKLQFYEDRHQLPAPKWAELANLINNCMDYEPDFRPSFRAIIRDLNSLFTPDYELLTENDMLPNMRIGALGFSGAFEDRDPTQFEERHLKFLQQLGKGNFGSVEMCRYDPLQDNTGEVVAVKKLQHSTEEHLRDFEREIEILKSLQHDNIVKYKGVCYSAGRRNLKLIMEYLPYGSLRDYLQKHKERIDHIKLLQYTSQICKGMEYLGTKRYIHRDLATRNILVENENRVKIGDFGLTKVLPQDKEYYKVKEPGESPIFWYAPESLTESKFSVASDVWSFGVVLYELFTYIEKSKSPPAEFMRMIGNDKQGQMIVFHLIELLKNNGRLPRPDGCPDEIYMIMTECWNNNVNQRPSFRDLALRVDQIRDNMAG
Chain of EPHB1 (P54762 whole entry, looked up): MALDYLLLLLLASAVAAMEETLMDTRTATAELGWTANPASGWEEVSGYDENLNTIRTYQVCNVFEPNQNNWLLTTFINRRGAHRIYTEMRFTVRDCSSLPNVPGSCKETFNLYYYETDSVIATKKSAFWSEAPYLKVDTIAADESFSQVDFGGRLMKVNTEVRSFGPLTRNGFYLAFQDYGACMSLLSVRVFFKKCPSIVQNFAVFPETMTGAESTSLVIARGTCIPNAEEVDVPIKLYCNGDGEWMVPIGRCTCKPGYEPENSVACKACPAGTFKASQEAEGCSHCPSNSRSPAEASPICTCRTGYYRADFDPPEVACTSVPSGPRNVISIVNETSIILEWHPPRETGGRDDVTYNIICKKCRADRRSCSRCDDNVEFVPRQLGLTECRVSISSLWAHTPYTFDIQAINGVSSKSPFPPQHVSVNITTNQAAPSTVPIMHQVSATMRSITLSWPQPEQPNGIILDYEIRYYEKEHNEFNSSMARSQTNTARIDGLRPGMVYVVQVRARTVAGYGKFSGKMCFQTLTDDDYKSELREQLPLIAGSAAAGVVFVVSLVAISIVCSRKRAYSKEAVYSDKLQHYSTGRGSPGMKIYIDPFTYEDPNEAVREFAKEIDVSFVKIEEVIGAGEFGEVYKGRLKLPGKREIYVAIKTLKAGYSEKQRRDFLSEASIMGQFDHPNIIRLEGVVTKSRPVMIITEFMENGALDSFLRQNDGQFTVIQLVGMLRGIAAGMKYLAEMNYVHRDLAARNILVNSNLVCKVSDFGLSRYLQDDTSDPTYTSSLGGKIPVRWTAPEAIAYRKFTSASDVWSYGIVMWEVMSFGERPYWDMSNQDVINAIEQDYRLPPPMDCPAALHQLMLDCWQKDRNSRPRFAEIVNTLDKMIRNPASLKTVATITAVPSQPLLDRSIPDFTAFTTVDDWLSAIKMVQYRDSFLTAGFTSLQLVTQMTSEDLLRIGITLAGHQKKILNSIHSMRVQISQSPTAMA
Chain of Hck (P08631 whole entry, looked up): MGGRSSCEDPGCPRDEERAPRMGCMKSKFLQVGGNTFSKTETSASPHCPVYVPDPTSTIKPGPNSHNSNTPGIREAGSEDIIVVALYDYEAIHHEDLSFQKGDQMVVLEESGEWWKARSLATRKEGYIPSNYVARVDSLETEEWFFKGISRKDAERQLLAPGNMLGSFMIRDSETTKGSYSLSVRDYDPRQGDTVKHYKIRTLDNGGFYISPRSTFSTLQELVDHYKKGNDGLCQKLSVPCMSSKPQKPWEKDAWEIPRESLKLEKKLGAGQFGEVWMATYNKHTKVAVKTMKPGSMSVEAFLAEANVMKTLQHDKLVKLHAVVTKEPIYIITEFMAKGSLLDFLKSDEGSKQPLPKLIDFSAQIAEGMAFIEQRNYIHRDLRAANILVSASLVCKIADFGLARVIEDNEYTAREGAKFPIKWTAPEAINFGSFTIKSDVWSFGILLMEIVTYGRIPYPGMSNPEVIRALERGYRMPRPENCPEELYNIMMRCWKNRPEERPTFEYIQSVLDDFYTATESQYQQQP
Chain of Fyn (P06241 whole entry, looked up): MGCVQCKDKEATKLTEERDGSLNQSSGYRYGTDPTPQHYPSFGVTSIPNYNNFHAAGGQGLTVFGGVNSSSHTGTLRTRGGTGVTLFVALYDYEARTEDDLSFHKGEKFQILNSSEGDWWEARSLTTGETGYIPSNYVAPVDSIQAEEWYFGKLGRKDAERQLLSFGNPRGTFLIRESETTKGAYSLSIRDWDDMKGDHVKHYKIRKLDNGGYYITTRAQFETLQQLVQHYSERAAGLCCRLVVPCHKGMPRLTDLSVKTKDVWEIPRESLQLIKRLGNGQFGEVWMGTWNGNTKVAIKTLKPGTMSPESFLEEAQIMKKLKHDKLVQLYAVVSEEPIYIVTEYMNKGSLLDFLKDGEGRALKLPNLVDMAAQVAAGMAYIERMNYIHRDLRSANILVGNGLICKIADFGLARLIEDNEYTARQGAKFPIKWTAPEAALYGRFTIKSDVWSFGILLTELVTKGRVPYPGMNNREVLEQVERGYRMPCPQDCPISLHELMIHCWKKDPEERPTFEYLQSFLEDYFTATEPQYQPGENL

Row | Sequence | phosphorylation enrichment (AncSZ) | phosphorylation enrichment (EPHB1) | phosphorylation enrichment (EPHB2) | phosphorylation enrichment (FGFR1) | phosphorylation enrichment (FGFR3) | phosphorylation enrichment (Fer (mouse)) | phosphorylation enrichment (Fes) | phosphorylation enrichment (Fyn) | phosphorylation enrichment (Hck) | phosphorylation enrichment (Jak2) | phosphorylation enrichment (MERTK) | phosphorylation enrichment (c-Abl (mouse)) | phosphorylation enrichment (c-Src) | SH2 binding enrichment (Grb2 SH2) | SH2 binding enrichment (SHP2-C SH2) | SH2 binding enrichment (c-Src SH2)
1 | CFTRKYTLPPG [HSPB1_Y142] | 0.763 | 0.546 | 0.459 | 0.495 | 0.604 | 0.459 | 1.06 | 0.443 | 0.457 | 0.787 | 0.42 | 0.678 | 0.452 | 0.683 | 0.601 | 0.477
2 | SSFSGYIMMPN [LEF1_Y114_YF] | 1.02 | 0.433 | 1.47 | 1.53 | 1.39 | 0.401 | 0.934 | 0.534 | 0.421 | 3.33 | 0.562 | 0.603 | 0.4 | 0.999 | 1.03 | 2.08
3 | SEQNNYSRVAN [CWC22_Y797_R794Q] | 0.705 | 1.14 | 0.878 | 0.43 | 0.437 | 0.497 | 0.534 | 0.458 | 0.458 | 0.535 | 0.4 | 0.447 | 0.35 | 0.784 | 3.97 | 1.66
4 | PVGVLYKVKVF [PTS_Y128_YF] | 1.45 | 1.14 | 0.906 | 0.842 | 1.4 | 0.659 | 1.61 | 0.716 | 0.619 | 1.21 | 0.381 | 0.882 | 0.388 | 0.706 | 0.607 | 0.418
5 | NKHTNYTMEHI [ACTN1_Y708] | 0.509 | 0.35 | 0.401 | 0.404 | 0.296 | 0.36 | 0.549 | 0.388 | 0.384 | 0.421 | 0.358 | 0.352 | 0.381 | 0.814 | 0.603 | 0.458
6 | LDPDSYNVFEN [FOXC1_Y159_M161V] | 2.1 | 0.728 | 0.703 | 0.527 | 1.31 | 0.742 | 2.2 | 0.643 | 0.613 | 2.3 | 1.04 | 1.93 | 0.915 | 0.74 | 0.752 | 1.59
7 | LSAPEYGPKLK [TBC1D14_Y46] | 0.592 | 0.539 | 0.425 | 0.58 | 0.565 | 0.458 | 0.514 | 0.451 | 0.537 | 0.409 | 0.383 | 0.456 | 0.412 | 1.02 | 0.665 | 0.5
8 | NYDLDYDSVQP [MYC_Y16] | 3.13 | 1.19 | 1.96 | 0.74 | 1.03 | 1.09 | 1.63 | 0.659 | 0.78 | 1.39 | 0.493 | 1.02 | 1.18 | 0.804 | 0.532 | 1.26
9 | IQVDAYFSPIH [ADSL_Y432] | 1.17 | 0.738 | 0.75 | 0.638 | 0.772 | 0.652 | 1.33 | 0.605 | 0.684 | 2.15 | 0.551 | 0.936 | 0.484 | 0.797 | 0.529 | 0.604
10 | TGEKLYQRKEF [ZNF283_Y627] | 0.813 | 0.62 | 0.379 | 0.539 | 0.489 | 0.437 | 0.847 | 0.526 | 0.543 | 0.59 | 0.477 | 0.507 | 0.447 | 0.889 | 0.728 | 0.456
11 | LGGSPYPSVPV [FGFR1_Y701_G703S] | 1.04 | 0.85 | 0.735 | 0.784 | 0.646 | 0.675 | 1.25 | 0.564 | 0.817 | 0.645 | 0.614 | 0.747 | 0.453 | 0.915 | 0.608 | 0.476
12 | LFSGDYFRIQG [DDR2_Y740_YF] | 4.61 | 6.99 | 4.1 | 23.1 | 15.7 | 0.739 | 2.04 | 1.36 | 1.57 | 23.4 | 2.08 | 1.67 | 3.77 | 1.03 | 0.652 | 0.674
13 | KRYRIYHLATS [BRCA2_Y3009] | 0.564 | 0.456 | 0.461 | 0.487 | 0.509 | 0.313 | 0.491 | 0.445 | 0.432 | 0.336 | 0.322 | 0.402 | 0.508 | 0.791 | 0.493 | 1.34
14 | LADMNYVHCDL [EPHB2_Y742_R745C] | 1.01 | 0.889 | 0.578 | 0.811 | 1.09 | 0.535 | 0.97 | 0.57 | 0.469 | 0.728 | 0.448 | 0.652 | 0.369 | 0.823 | 0.83 | 0.684
15 | ATGMEYLASQK [FGFR2_Y616_R612T] | 0.736 | 0.479 | 0.495 | 0.464 | 0.833 | 0.426 | 0.794 | 0.559 | 0.474 | 0.68 | 0.423 | 0.58 | 0.44 | 1.01 | 0.571 | 0.465
16 | LLTALYFISWG [KCNH2_Y780_R784W] | 1.51 | 1.04 | 0.786 | 0.847 | 1.23 | 0.782 | 1.58 | 1.59 | 2.03 | 1.95 | 3.92 | 1.09 | 2.27 | 1.01 | 0.891 | 0.666
17 | DPLLTYRFPPK [LMNA_Y481] | 0.597 | 0.422 | 0.349 | 0.452 | 0.446 | 0.292 | 0.513 | 0.502 | 0.43 | 0.515 | 0.434 | 0.578 | 0.635 | 0.921 | 0.911 | 0.542

Row | Sequence | phosphorylation enrichment (AncSZ) | phosphorylation enrichment (EPHB1) | phosphorylation enrichment (EPHB2) | phosphorylation enrichment (FGFR1) | phosphorylation enrichment (FGFR3) | phosphorylation enrichment (Fer (mouse)) | phosphorylation enrichment (Fes) | phosphorylation enrichment (Fyn) | phosphorylation enrichment (Hck) | phosphorylation enrichment (Jak2) | phosphorylation enrichment (MERTK) | phosphorylation enrichment (c-Abl (mouse)) | phosphorylation enrichment (c-Src) | SH2 binding enrichment (Grb2 SH2) | SH2 binding enrichment (SHP2-C SH2) | SH2 binding enrichment (c-Src SH2)
18 | FRASFYRRGDR [LTK_Y677_YF] | 0.756 | 0.543 | 0.552 | 0.549 | 0.526 | 0.456 | 0.631 | 0.617 | 0.463 | 0.583 | 0.722 | 0.634 | 0.709 | 0.542 | 0.471 | 0.379
19 | KELSNYKHLTL [SLIT2_Y776] | 0.571 | 0.494 | 0.409 | 0.501 | 0.43 | 0.423 | 0.528 | 0.417 | 0.384 | 0.543 | 0.443 | 0.522 | 0.368 | 0.721 | 0.634 | 0.503
20 | YTFNSYYMHWV [IGHV1-46_Y51_T49N] | 1.77 | 4.7 | 4.46 | 6.62 | 5.38 | 5.35 | 1.6 | 1.54 | 2.52 | 6.39 | 6.9 | 1.1 | 2.06 | 1.12 | 0.951 | 0.839
21 | RPSGRYPVARR [SHANK3_Y1569] | 0.782 | 0.734 | 0.567 | 0.669 | 1.05 | 0.695 | 0.611 | 0.985 | 0.767 | 0.619 | 0.664 | 0.677 | 0.782 | 0.541 | 0.514 | 0.464
22 | GGPAEYLRRAS [PKLR_Y38_G37E] | 0.954 | 0.41 | 0.334 | 0.363 | 0.415 | 0.367 | 0.76 | 0.427 | 0.374 | 0.508 | 0.361 | 0.675 | 0.285 | 0.743 | 0.647 | 0.355
23 | ELELLYPDRNS [NYX_Y284_L285P] | 1.17 | 0.556 | 0.544 | 0.776 | 0.759 | 0.463 | 1.27 | 0.492 | 0.534 | 1.03 | 0.433 | 0.799 | 0.489 | 0.831 | 1.01 | 0.513
24 | DHFNQYEQQKM [CHD7_Y75_YF] | 0.834 | 0.457 | 0.462 | 0.468 | 0.582 | 0.415 | 0.744 | 0.382 | 0.47 | 0.535 | 0.425 | 0.599 | 0.414 | 0.752 | 0.682 | 0.501
25 | EFEGLYQEGGG [TMEM159_Y159] | 0.974 | 0.576 | 0.579 | 0.5 | 0.612 | 0.585 | 0.939 | 0.675 | 0.842 | 0.781 | 0.456 | 0.551 | 0.658 | 1.51 | 0.789 | 0.607
26 | VVQGIYGFHHH [UFSP2_Y285_Y290H_YF] | 0.685 | 0.65 | 1.19 | 0.523 | 0.496 | 11.7 | 0.776 | 11.7 | 10.8 | 0.538 | 9.65 | 2.36 | 9.09 | 1.06 | 0.757 | 0.588
27 | PYRFIYMAVQH [PTPN11_Y515_Q510P] | 1.92 | 3.56 | 2.45 | 1.87 | 1.76 | 2.9 | 2.08 | 5.01 | 5.48 | 1.08 | 2.14 | 1.67 | 3.36 | 1.07 | 1.12 | 0.759
28 | KPFRVYCDMNT [FGB_Y269_YF] | 1.22 | 0.933 | 0.72 | 0.597 | 0.773 | 0.593 | 1.3 | 0.493 | 0.513 | 1.31 | 0.409 | 0.886 | 0.414 | 0.783 | 0.535 | 0.771
29 | KVQVSYKGDTK [HSPA1A_Y107_E110D] | 0.491 | 0.299 | 0.36 | 0.425 | 0.378 | 0.328 | 0.598 | 0.372 | 0.392 | 0.5 | 0.414 | 0.615 | 0.473 | 0.949 | 0.676 | 0.525
30 | VEDDMYRKTCT [XPA_Y257_L252V] | 1.33 | 0.676 | 0.636 | 0.559 | 0.868 | 0.696 | 1.3 | 0.602 | 0.626 | 1.33 | 0.507 | 0.932 | 0.544 | 0.894 | 0.828 | 0.494
31 | FETVKYINNER [ABCB7_Y345_F346I_YF] | 0.903 | 0.46 | 0.403 | 0.525 | 0.64 | 0.424 | 0.954 | 0.452 | 0.472 | 0.712 | 0.418 | 0.617 | 0.431 | 1.23 | 0.713 | 0.441
32 | NFDRVYIFHLR [MYOF_Y1137_YF] | 1.19 | 0.545 | 0.559 | 0.535 | 0.897 | 0.523 | 1.19 | 0.414 | 0.473 | 1.18 | 0.46 | 0.91 | 0.615 | 1.59 | 1.66 | 1.21
33 | NDQANYLLNTD [ADA_Y290_S291L] | 0.987 | 0.558 | 0.56 | 0.432 | 0.601 | 0.379 | 0.968 | 0.491 | 0.469 | 0.934 | 0.395 | 0.681 | 0.468 | 0.765 | 0.893 | 0.527

— the supplement of paper PMC10065799, “High-throughput profiling of sequence recognition by tyrosine kinases and SH2 domains using bacterial peptide display” (eLife, 2023)
